{"source": "patent US20220380456A1", "about": "(UNITED KINGDOM RESEARCH AND INNOVATION, published 2022)", "key": {"[1]": {"molecular_target": "T1, MSP1E3D1 (human Apo A-I derived, engineered)", "T1 construct": "also called MSP1E1D3 MSP variant", "T1 chain": "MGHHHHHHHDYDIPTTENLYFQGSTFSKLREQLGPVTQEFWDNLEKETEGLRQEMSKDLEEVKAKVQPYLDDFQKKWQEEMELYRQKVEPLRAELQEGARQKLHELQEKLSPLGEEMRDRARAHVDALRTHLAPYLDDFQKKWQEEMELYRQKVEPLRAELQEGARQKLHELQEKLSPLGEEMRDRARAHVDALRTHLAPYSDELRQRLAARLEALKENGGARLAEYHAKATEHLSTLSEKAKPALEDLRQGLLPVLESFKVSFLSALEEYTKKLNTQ", "experiment": "ELISA on coated MSP variants, n=3"}, "[2]": {"molecular_target": "T2, His6-TEV-MSP1D1 (CA15914) (human Apo A-I derived, engineered, biotinylated with EZ-link NHS-Biotin for the BLI experiment only)", "T2 construct": "Membrane scaffold protein; The entry holds the 6xHis tag, the TEV cleavage site and MSP1D1; Tested in Apo-state (lipid free) and in Nanodisc-state (POPC nanodisc, two MSP1D1 per nanodisc)", "T2 chain": "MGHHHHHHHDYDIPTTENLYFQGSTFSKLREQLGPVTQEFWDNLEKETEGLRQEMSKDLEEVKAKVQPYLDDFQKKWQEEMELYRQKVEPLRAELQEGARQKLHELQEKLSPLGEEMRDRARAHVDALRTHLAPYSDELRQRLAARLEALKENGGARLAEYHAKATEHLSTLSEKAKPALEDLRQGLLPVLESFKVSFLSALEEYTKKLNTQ", "experiment": "BLI (OctetRED96), biotinylated Apo MSP1D1 on streptavidin sensors, 1:2 binding model"}, "[3]": {"molecular_target": "T2, His6-TEV-MSP1D1 (CA15914)", "experiment": "BLI (OctetRED96), biotinylated MSP1D1 (Apo-state) on streptavidin sensors, 1:2 binding model, 30 °C; biotinylated Apo-state MSP1D1 on the SA sensor; 30 C; 1:2 binding model"}, "[4]": {"molecular_target": "T3, His6-TEV-MSP2N2 (CA15915) (human Apo A-I derived, engineered, UniProt P02647 79-267, limits assumed)", "T3 construct": "Membrane scaffold protein; The entry holds the 6xHis tag, the TEV cleavage site and MSP2N2; Tested in Apo-state, in Nanodisc-state, and as the belt of nanodiscs loaded with GABAAR-β3", "experiment": "ELISA, purified MegaBody on coated MSP (Apo- or Nanodisc-state) vs non-coated wells, A405"}, "[5]": {"molecular_target": "T2, His6-TEV-MSP1D1 (CA15914)", "experiment": "ELISA, purified MegaBody on coated MSP (Apo- or Nanodisc-state) vs non-coated wells, A405"}}}
{"binder": "MbNbF3^c7HopQ MegaBody (CA15192) (other, MegaBody: c7HopQ scaffold inserted in the first β-turn of Nanobody MP1521_F3; Entry includes 6xHis and EPEA tags; also called MbF3^c7HopQ MegaBody) QVQLVESGGGLVQTKTTTSVIDTTNDAQNLLTQAQTIVNTLKDYCPILIAKSSSSNGGTNNANTPSWQTAGGGKNSCATFGAEFSAASDMINNAQKIVQETQQLSANQPKNITQPHNLNLNSPSSLTALAQKMLKNAQSQAEILKLANQVESDFNKLSSGHLKDYIGKCDASAISSANMTMQNQKNNWGNGCAGVEETQSLLKTSAADFNNQTPQINQAQNLANTLIQELGNNTYEQLSRLLTNDNGTNSKTSAQAINQAVNNLNERAKTLAGGTTNSPAYQATLLALRSVLGLWNSMGYAVICGGYTKSPGENNQKDFHYTDENGNGTTINCGGSTNSNGTHSYNGTNTLKADKNVSLSIEQYEKIHEAYQILSKALKQAGLAPLNSKGEKLEAHVTTSKYGSLRLSCAASGSGFGPNVMGWYRQAPGKRRELVATINRIGNINYGDSVKGRFTLSREIAVNTVYLQMNSLKPEDAANYYCYAAKYGVDYWGKGTQVTVSSHHHHHHEPEA", "values": [{"measurement": "binding result", "setting": "[1]", "value": "binds"}, {"measurement": "koff", "setting": "[2]", "value": 0.00103, "unit": "s⁻¹"}, {"measurement": "kon", "setting": "[2]", "value": 44000, "unit": "M⁻¹ s⁻¹"}, {"measurement": "Kd", "setting": "[3]", "value": 23.5, "unit": "nM"}, {"measurement": "fold ELISA signal over no MSP", "setting": "[4]", "value": "≥ 4", "unit": "fold"}, {"measurement": "fold ELISA signal over no MSP", "setting": "[5]", "value": "≥ 4", "unit": "fold"}]}
